From US20180265551A1 (GlaxoSmithKline, published 2018)

Molecular target: the molecule itself
Assay: size exclusion chromatography and negative stain EM (self-association of trimers)

B1: gB-698 (CMV gB ectodomain residues 1-698 with fusion loop, furin site and C246S mutations, C-terminal 6-His tag) (other)
chain: VSSSSTRGTSATHSHHSSHTTSAAHSRSGSVSQRVTSSQTVSHGVNETIYNTTLKYGDVVGVNTTKYPYRVCSMAQGTDLIRFERNIVCTSMKPINEDLDEGIMVVYKRNIVAHTFKVRVYQKVLTFRRSYAYHRTTYLLGSNTEYVAPPMWEIHHINSHSQCYSSYSRVIAGTVFVAYHRDSYENKTMQLMPDDYSNTHSTRYVTVKDQWHSRGSTRLYRETSNLNCMVTITTARSKYPYHFFATSTGDVVDISPFYNGTNRNASYFGENADKFFIFPNYTIVSDFGRPNSALETHRLVAFLERADSVISWDIQDEKNVTCQLTFWEASERTIRSEAEDSYHFSSAKMTATFLSKKQEVNMSDSALDCVRDEAINKLQQIFNTSYNQTYEKYGNVSVFETTGGLVVFWQGIKQKSLVELERLANRSSLNLTHNSTKSSTDGNNATHLSNMESVHNLVYAQLQFTYDTLRGYINRALAQIAEAWCVDQRRTLEVFKELSKINPSAILSAIYNKPIAARFMGDVLGLASCVTINQTSVKVLRDMNVKESPGRCYSRPVVIFNFANSSYVQYGQLGEDNEILLGNHRTEECQLPSLKIFIAGNSAYEYVDYLFKRMIDLSSISTVDSMIALDIDPLENTDFRVLELYSQKELRSSNVFDLEEIMREFNSYKQRVKYVEHHHHHH
notes: Expressed in 293GnTI- cells; The trimer pairs into a dimeric trimer of six subunits
  binding result: binds
